Molecular target: B7 (cell surface glycoprotein, CD28-ligand B7) (Homo sapiens (Human)) (UniProt P33681)

- IFN-γ production in PBMC stimulated with IL-12 alone (RIA): > 5 fold
Substance: CTLA-4Ig (chimeric recombinant soluble B7-ligand) (from UniProt P16410) (Fc fusion)

— patent US5723127
